Reference: patent US20170095421A1, “SYNTHETIC PLATELETS” (Maria I. C. Gyongyossy-Issa, priority 2006, published 2017)
Where no end group is shown, it is not given here. [ ]: non-standard residue; d: D form.

How the values were obtained:
[1] = Stability of the covalent linkage of peptide to hydrogel liposomes (Trp fluorescence); type: physicochemical; settings: hypothermic liquid storage, 4° C., under nitrogen, in the dark
Experimental: In brief: fluorescence emission at 348 nm (excitation 280 nm) of the single tryptophan of peptide D-Pep3 was used to analyze the stability of the peptide on the liposomes' surface. Fluorescence emission standard curves of trp-associated fluorescence were prepared using a range of concentrations from 1 μM to 20 μM free peptide D-Pep3 in the presence of 1 mM PEG2000 or HL liposomes (FIG. 34).
HL and PEG2000 liposomes were reacted with D-Pep3 peptide (as described according to Scheme 1) then washed and adjusted to a concentration of 1 mM lipid. The fluorescence emission was measured. The samples were stored under nitrogen, in the dark, at 4° C. for one month. The liposomes were again washed, resuspended to the same lipid concentration and the fluorescence emission was measured as before (FIG. 35). The attachment was stable for >1 months in hypothermic liquid storage.

[2] = biological target: T1, vWf (Homo sapiens, UniProt P04275); assay: Capture of vWf from plasma cryoglobulin fraction; type: binding; settings: human cryoprecipitate 1/100, 1 hour at 37° C., anti-vWf-FITC
T1 construct: mixed with 5 μL human cryoprecipitate diluted 1/100 in Hepes Buffered Saline; from tissue; host or cells: human plasma cryoprecipitate
Experimental: Aliquots of 30 μL of HL or D-Pep3-HL liposomes were mixed with 5 μL human cryoprecipitate diluted 1/100 in Hepes Buffered Saline, (10 mM Hepes, 154 mM NaCl, pH 7.4.) The samples were diluted in buffer to achieve final lipid concentrations of 0.1, 0.25, 0.5, 0.75 and 1 mM, and incubated for 1 hour at 37° C. Anti-vWf-FITC antibodies were added (final dilution 1/128) and incubated for 40 minutes at RT. Samples were diluted with 350 μl of formal-saline and analyzed by flow cytometry.

[3] = test system: platelets; assay: P-HL interaction with platelets in plasma (flow cytometry, co-aggregates); type: cell-based; settings: 0.75 mM lipid, washed platelets, one hour at room temperature
Experimental: Red anti-Cd42-PE antibodies (7 μL) to detect platelets and 5 μL green anti-vWf-FITC antibodies at a 1/160 dilution were added to the tubes and incubated one more time for 30 min. The samples were diluted to 1 mL with formolsaline solution and analysed by flow cytometry. Singlet platelets (platelet gate), singlet liposomes and co-aggregates (P1 gate) were scored.
The post-stained aggregates were positive for CD42 (GPIb) and vWf. All the relevant controls were done, and the critical double stained examples (with anti-CD42-PE and anti-vWf-FITC) were as follows:
FIG. 37A: platelets alone, double stained with anti-CD42-PE and anti-vWF-FITC FIG. 37B: HL (control liposomes), double stained FIG. 37C: P-HL (D3-peptide hydrogel liposomes), double stained FIG. 37D: HL+platelets, (double stained) FIG. 37E: P-HL+platelets, (double stained)

[4] = biological target: T2, purified vWf (Homo sapiens, UniProt P04275); assay: Random 15-mer D-peptide array probed with purified vWf; type: binding; settings: peptide on cellulose membrane, detection with anti-human vWf IgG-HRP
T2 construct: gift of Dr. F. A. Ofosu, McMaster University
Source text: Random D-amino acid peptides (15 mer) were synthesized and probed with vWf to detect random sequences capable of binding vWf.
Random peptide arrays of 1120 peptides made of D-amino acids were synthesized on a cellulose membrane using an AutoSpot ASP 222 peptide synthesizer (ABiMED, Langenfeld, Germany). The resulting replicate libraries of 15-mer sequences were probed for vWf binding function by exposing the membranes to purified vWf (a gift of Dr. F. A. Ofosu, McMaster University, Hamilton ON, Canada) and blocking with milk, then identifying positive spots with a polyclonal goat anti-human vWf IgG coupled to horseradish peroxidase (Cedarlane, Canada). Immunochemical detection was done using the chemiluminescent substrates from the Amersham Pharmacia ECL kit; and the resulting spots were recorded on photographic film. Negative controls consisted of probing the membranes with the antibodies only, but without prior exposure of the membrane to purified vWf.
Peptides on random 15-mer peptide arrays that were built of D-amino acids were selected by their binding of vWf. Four sequences were identified: D-pep1-VSRQNGKQYWAIKEG (SEQ ID NO:1); D-pep2-WQNEGTHVLSRCYEC (SEQ ID NO:2); D-pep3-RSARMQVCWNAFKNR (SEQ ID NO:3); and D-pep4-DSCPRDWDNNFLFFE (SEQ ID NO:4). […] The identification of each vWf-peptide binding interface constitutes the results that follow.
Source—a random d-peptide array was probed with vWf and developed with […]. “Forward” D-amino acid peptides were tested, although L-amino acid versions of the peptides as well as the reverse (retro) of both L- and D-sequences will be also encompassed within the scope of these receptor molecules.

[5] = biological target: purified GPIb (Homo sapiens, UniProt P07359); assay: Overlapping vWf L-peptides on cellulose membrane probed by purified GPIb; type: binding; settings: detected by anti-GPIb coupled to HRP
Experimental: The vWf amino acid sequence was used to generate 10-mer L-amino acid overlapping peptides, shifted by two (2), according to the following pattern:
These peptides were synthesized and remained attached on the cellulose membrane. The membranes were probed by purified GPIb which was detected by anti-GPIb coupled to horseradish peroxidase (HRP). A number of positive spots were found whose sequences were derived from their positions on the membrane.
The sequences were analyzed in silico by (a) finding their positions in a 3D model of the parent protein (see FIG. 17) and then (b) relating that position to the potential vWf-GPIb interactive site.

D-Pep3-HL: D-Pep3 peptide covalently attached by Michael addition to hydrogel-liposomes ([dR][dS][dA][dR][dM][dQ][dV][dC][dW][dN][dA][dF][dK][dN][dR]; also: covalently attached to PEG hydrogel-coated liposome by Michael addition (Cys thiol or amines))
stability of the peptide attachment [1]: > 1 months
binding (capture) of vWf [2]: able to bind their specific ligand
aggregate formation with platelets [3]: form aggregates

DSCPRDWDNNFLFFE (not fully specified) [D-pep4]
binding of vWf [4]: binding to vWf

EVLKYTLFQI [L-black]
binding of GPIb (positive spots) [5]: +ve

RSARMQVCWNAFKNR (not fully specified) [D-pep3]
binding of vWf [4]: binding to vWf

SHAYIGLKDR [L-brown]
binding of GPIb (positive spots) [5]: +ve

VSRQNGKQYWAIKEG (not fully specified) [D-pep1]
binding of vWf [4]: binding to vWf

WQNEGTHVLSRCYEC (not fully specified; cysteine pairing not given here) [D-pep2]
binding of vWf [4]: binding to vWf
